Laboratory results published in patent US20140112915A1 (Novartis, published 2014).
Where a chain is given by its changes, count along the chain named.

T1: Recombinant human IL-18 (human, UniProt Q14116 37-193)
T1 construct: Used unlabeled or biotinylated depending on the assay step; also called Hu IL-18; hr IL-18
T1 sequence: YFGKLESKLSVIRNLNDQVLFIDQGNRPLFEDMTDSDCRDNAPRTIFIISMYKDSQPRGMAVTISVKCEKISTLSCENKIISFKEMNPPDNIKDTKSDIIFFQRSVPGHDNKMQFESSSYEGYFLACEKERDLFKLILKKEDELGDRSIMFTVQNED

T2: Recombinant cynomolgus IL-18 (cynomolgus monkey, UniProt Q14116 37-193 (human entry))
T2 chain: T1 sequence with V11I, S50N, T63A, K79R, F134Y, E141K

T3: IL-18/IL-18BP complex (human, UniProt O95998 31-194, biotinylated in the first ELISA setup, unbiotinylated in the second)
T3 construct: also called biotinylated IL-18/IL18-BP complex; not shown: human IgG1 Fc tag
T3 sequence 1: T1 sequence
T3 sequence 2: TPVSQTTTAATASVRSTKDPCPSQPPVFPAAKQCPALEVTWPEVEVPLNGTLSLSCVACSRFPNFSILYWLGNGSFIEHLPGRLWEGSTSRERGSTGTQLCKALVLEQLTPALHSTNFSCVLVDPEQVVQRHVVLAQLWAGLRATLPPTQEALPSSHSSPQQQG

T4: Native human IL-18 (human, UniProt Q14116 37-193)
T4 sequence: T1 sequence

B1: MOR09465 (antibody, human IgG1, lambda, L234A L235A, V domains shown)
VH: EVQLVQSGAEVKKPGSSVKVSCKASGGTFNSYAISWVRQAPGQGLEWMGNIIPHYGFAYYAQKFQGRVTITADESTSTAYMELSSLRSEDTAVYYCARAAYHPLVFDNWGQGTLVTVSS
VL: DIVLTQPPSVSGAPGQRVTISCSGSSSNIGNHYVNWYQQLPGTAPKLLIYRNNHRPSGVPDRFSGSKSGTSASLAITGLQSEDEADYYCQSWDYSGFSTVFGGGTKLTVLG
notes: also called MOR9465
B2: MOR09441 (antibody, human IgG1, lambda, L234A L235A, V domains shown)
VH: EVQLVQSGAEVKKPGSSVKVSCKASGGTFNSYAISWVRQAPGQGLEWMGWINPFYIGETFYAQKFQGRVTITADESTSTAYMELSSLRSEDTAVYYCARAAYHPLVFDNWGQGTLVTVSS
VL: B1 VL
notes: also called MOR9441
B3: MOR09464 (antibody, human IgG1, lambda, L234A L235A, V domains shown)
VH: B1 VH with H54M, Y55T, F57Q, A58T
VL: B1 VL
notes: also called MOR9464
B4: MOR09466 (antibody, human IgG1, lambda, L234A L235A, V domains shown)
VH: B1 VH with H54Y, Y55S
VL: B1 VL
notes: also called MOR9466
B5: MOR10501 (antibody, human IgG1, lambda, L234A L235A, V domains shown)
VH: EVQLQESGPGLVKPGETLSLTCTVSGGSISTGSYYWNWIRQAPGKGLEWIGEIWHSGPTFYNPSLKSRVTISVDTSKNQFSLKLSSVTAADTAVYYCARTTRYWMSHILAYGMDYWGQGTLVTVSS
VL: DIVLTQPPSVSGAPGQRVTISCSGSSSNIGNHYVSWYQQLPGTAPKLLIYANTKRPSGVPDRFSGSKSGTSASLAITGLQSEDEADYYCSSYDGSQSIVFGGGTKLTVLG
notes: also called MOR010501
B6: MOR10502 (antibody, human IgG1, lambda, L234A L235A, V domains shown)
VH: B5 VH with W54H, H55G, S56H, P58F
VL: B5 VL
notes: also called MOR010502
B7: MOR10497 (antibody, human IgG1, lambda, L234A L235A, V domains shown)
VH: B5 VH with W54Q, H55S, S56P, P58Y
VL: B5 VL
notes: also called MOR010497
B8: MOR13363 (antibody, human IgG1, kappa, L234A L235A, V domains shown)
VH: QVQLLESGGGLVQPGGSLRLSCAASGFTFSSYAIHWVRQAPGKGLEWVSVISGEGSNTYYADSVKGRFTISRDNSKNTLYLQMNSLRAEDTAVYYCARVMIGYGFDYWGQGTLVTVSS
VL: DIQMTQSPSSLSASVGDRVTITCRASQSIFNYLNWYQQKPGKAPKLLIYDSSTLQSGVPSRFSGSGSGTDFTLTISSLQPEDFATYYCLQYSGFLFTFGQGTKVEIKR
B9: MOR13341 (antibody, human IgG1, kappa, L234A L235A, V domains shown)
VH: QVQLVQSGAEVKKPGSSVKVSCKASGGTFSTFSISWVRQAPGQGLEWMGGIIPIFGTANYAQKFQGRVTITADESTSTAYMELSSLRSEDTAVYYCARGGYGGYYYFDYWGQGTLVTVSS
VL: B8 VL with F30S, Y32R, D50K, S51G, L89Q, Y91H, S92K, G93V, F94W, F96T
B10: MOR13361 (antibody, human IgG1, kappa, L234A L235A, V domains shown)
VH: B8 VH with V50T, S52Q, G53S, E54S, S56E, T58K, Y59F
VL: B8 VL with L89H, F94L
B11: MOR10222_E1Q_N30S_M54I (antibody, human IgG1, lambda, L234A L235A, V domains shown)
VH: B1 VH with E1Q, N30S, H54I, Y55T, F57Q, A58T
VL: B1 VL with D1Q, I2S, V10A, A13T, T77S

target: T1, Recombinant human IL-18; assay: solution equilibrium titration (SET), ECL detection
Procedure: (§1) Goat-anti-human (Fab)₂ fragment specific antibodies (Dianova) were labeled with MSD SULFO-TAG™ NHS-Ester (Meso Scale Discovery, Gaithersburg, Md., USA) according to the manufacturer's instructions. Experiments were carried out in polypropylene microtiter plates and phosphate-based assay buffer. Unlabeled human IL-18 was serially diluted, starting with a concentration at least 10 times higher than the expected KD. Wells without antigen were used to determine Bₘₐₓ values; wells with assay buffer were used to determine background. After addition of a constant amount of antibodies or fragment thereof (e.g. 10 pM final concentration in 60 μl final volume), the mixture was incubated over night at RT.
(§2) Streptavidin MSD plates were blocked with BSA-containing phosphate buffer over night. After blocking of the plate, biotinylated human IL-18 was added and incubated for 1 h at RT. Subsequently the equilibrated samples were transferred to those plates and incubated for a short time at RT. After washing, MSD SULFO-TAG labeled detection antibody (goat anti-human (Fab)₂) was added to the MSD plate and incubated for a short time at RT.
(§3) Where IL-18 from cynomolgus monkey (cm IL-18) was also tested, the resulting KD are indicated in brackets.

Binder	Kd
B1	0.006 nM
B2	0.001 nM
B3	0.003 nM
B4	0.005 nM
B5	0.001 nM
B6	0.004 nM
B7	0.002 nM

target: T1, Recombinant human IL-18; assay: solution equilibrium titration (SET), ECL detection; human IL-18; unbracketed value, column Hu IL-18
Procedure: as §1, §2, §3

Binder	Kd
B8	0.01 nM
B9	0.003 nM
B10	0.007 nM
B11	0.003 nM

Target: T2, Recombinant cynomolgus IL-18
Assay: cell-based or functional assay

Binder	IC50, inhibition of IFN-γ production, cynomolgus whole blood, recombinant cynomolgus IL-18 (7 nM)
B1	55 nM
B2	110 nM
B3	51 nM
B4	179 nM

target: T3, IL-18/IL-18BP complex; assay: ELISA, second set-up: unbiotinylated human IL-18/rhIL-18BP-Fc complex captured on Maxisorp plate through the Fc tag by goat anti-human IgG Fc, antibody titrated, AttoPhos fluorescence [B]
Procedure: Plates were washed 5× with TBST, 20 μl AttoPhos (Roche) solution (1:5 diluted in ddH2O) were added and fluorescence was measured at the Tecan Reader.
In a second setup, the experiment was done in a similar way, except for using unbiotinylated hu IL-18.

Binder	binding result
B1	no binding (tested: about 400 nM)
B2	no binding (tested: about 400 nM)
B3	no binding (tested: about 400 nM)
B4	no binding (tested: about 400 nM)

target: T1, Recombinant human IL-18; assay: cell-based or functional assay

Binder	IC50, inhibition of IFN-γ release, KG-1 cells, Hu IL-18 (0.5 nM)	IC50, inhibition of IFN-γ release, KG-1 cells, Hu IL-18 (1 nM)	IC50, inhibition of IFN-γ release, PBMC, Hu IL-18 (recombinant)
B8	0.49 nM		
B9	0.13 nM		
B10	0.41 nM		
B1		0.3 nM	0.6 nM
B2		0.6 nM	2.5 nM
B3		0.8 nM	1.3 nM
B4		0.4 nM	1.2 nM
B11		4.21 nM	
B5		0.3 nM	6.3 nM
B6		0.4 nM	6.3 nM
B7		0.3 nM	5.8 nM

target: T4, Native human IL-18; assay: cell-based or functional assay

Binder	IC50, inhibition of IFN-γ release, PBMC, Native IL-18 (LPS/IL-12)
B8	0.18 nM
B9	0.8 nM
B10	0.5 nM
B1	0.89 nM
B2	0.45 nM
B3	0.2 nM
B4	2.1 nM
B11	0.05 nM
B5	1.3 nM
B6	2.3 nM
B7	1.8 nM

Target: T2, Recombinant cynomolgus IL-18
Assay: cell-based or functional assay
Remark: another data set of the same source

Binder	IC50, inhibition of IFN-γ release, KG-1 cells, Cyno IL-18 (0.2 nM)	IC50, inhibition of IFN-γ release, KG-1 cells, Cyno IL-18
B8	0.28 nM	
B9	2.8 nM	
B10	0.13 nM	
B1		1.8 nM
B2		16.4 nM
B3		8.3 nM
B4		5.6 nM
B11		8.12 nM
B5		0.2 nM
B6		0.2 nM
B7		0.3 nM

target: T1, Recombinant human IL-18; assay: cell-based or functional assay; remark: another data set of the same source

Binder	IC50, inhibition of IFN-γ release, human whole blood, recombinant human IL-18 (7 nM)
B8	29.4 nM
B9	5.6 nM
B10	15.7 nM
B1	4.2 nM
B2	8 nM
B3	3.6 nM
B4	5.6 nM
B11	47.3 nM
B5	20.3 nM
B6	17.9 nM
B7	16.1 nM

target: T4, Native human IL-18; assay: cell-based or functional assay; remark: another data set of the same source

Binder	IC50, inhibition of IFN-γ release, human whole blood, LPS/IL-12 (native IL-18)
B8	91.7 nM
B9	19.6 nM
B10	39.4 nM
B1	19.4 nM
B2	16.3 nM
B3	9.8 nM
B4	18.5 nM
B11	9.3 nM
B5	101 nM
B6	110 nM
B7	108 nM

Target: T2, Recombinant cynomolgus IL-18
Assay: solution equilibrium titration (SET), ECL detection; value in brackets = cynomolgus IL-18; bracketed value
Procedure: as §1, §2, §3

Binder	Kd
B8	0.01 nM
B9	0.03 nM
B10	0.006 nM
B11	0.03 nM

target: T1, Recombinant human IL-18; assay: cell-based or functional assay; remark: another data set of the same source

Binder	IC50, inhibition of IFN-γ release, KG-1 cells, Hu IL-18 (1 nM)
B11	4.2 nM

target: T4, Native human IL-18; assay: cell-based or functional assay; remark: another data set of the same source

Binder	IC50, inhibition of IFN-γ release, PBMC, Native IL-18 (LPS/IL-12)
B11	0.05 nM
